# Results published in publication PMC9583076.
# Molecular target: Individual alanine mutations of these three residues (HTR2B S455, S456 and S457)
# Experiment: FRET or BRET
# Sequence of N-terminal Venus-tagged β-arrestin-1 (P49407 whole entry): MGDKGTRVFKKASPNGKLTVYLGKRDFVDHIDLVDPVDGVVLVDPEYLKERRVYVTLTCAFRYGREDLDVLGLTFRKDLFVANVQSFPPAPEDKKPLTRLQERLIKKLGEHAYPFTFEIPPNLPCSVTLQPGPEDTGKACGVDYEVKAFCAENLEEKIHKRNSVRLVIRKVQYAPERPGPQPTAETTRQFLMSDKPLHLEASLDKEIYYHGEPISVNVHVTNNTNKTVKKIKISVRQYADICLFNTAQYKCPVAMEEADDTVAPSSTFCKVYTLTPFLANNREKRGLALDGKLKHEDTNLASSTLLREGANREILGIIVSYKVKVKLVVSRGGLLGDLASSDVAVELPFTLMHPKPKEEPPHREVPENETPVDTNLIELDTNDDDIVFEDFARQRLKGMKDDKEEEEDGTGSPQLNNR
substance,measurement,value
N-terminal Venus-tagged β-arrestin-1 (from UniProt P49407 1-418) (natural protein),reduction of Emax of β-arrestin-1 recruitment against WT,30 to 50%
